Source: publication PMC7983947, “ADP-Ribosylation Regulates the Signaling Function of IFN-γ” (Frontiers in Immunology, 2021)

T1: recombinant IFNR1-Fc (extracellular domain of interferon receptor 1) (UniProt P15261)
T1 sequence: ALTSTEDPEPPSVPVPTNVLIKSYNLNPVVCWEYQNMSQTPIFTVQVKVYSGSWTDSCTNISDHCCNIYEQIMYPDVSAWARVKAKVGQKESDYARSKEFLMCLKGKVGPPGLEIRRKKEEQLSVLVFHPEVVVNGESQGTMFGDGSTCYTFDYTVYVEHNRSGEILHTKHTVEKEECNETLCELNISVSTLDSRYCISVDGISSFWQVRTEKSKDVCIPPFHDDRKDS


Assays:
[1] = target: T1, recombinant IFNR1-Fc (extracellular domain of interferon receptor 1)
[2] = target: the molecule itself; test: non-reducing SDS-PAGE; murine serum spiked with IFN-γ, incubated with shed ARTC2.2 and 32P-NAD+; gel run under non-reducing conditions, autoradiography

| Binder | phosphorylation of STAT1 in primary peritoneal macrophages (flow cytometry, serial titrations); loss of potency against unmodified IFN-γ; restored by de-ADP-ribosylation with ARH1 [1] [fold] | binding result [2] |
| --- | --- | --- |
| ADP-ribosylated IFN-γ (ligand, ADP-ribosyl-arginine at R128) HGTVIESLESLNNYFNSSGIDVEEKSLFLDIWRNWQKDGDMKILQSQIISFYLRLFEVLKDNQAISNNISVIESHLITTFFSNSKAKKDAFMSIAKFEVNNPQVQRQAFNELIRVVHQLLPESSLRKRKRSRC | 4 | – |
| recombinant murine IFN-γ (ligand, UniProt P01580 23-155, looked up, interferon gamma, murine, recombinant; also called interferon-gamma; native IFN-γ homodimer; source: bought: Immunotools) HGTVIESLESLNNYFNSSGIDVEEKSLFLDIWRNWQKDGDMKILQSQIISFYLRLFEVLKDNQAISNNISVIESHLITTFFSNSKAKKDAFMSIAKFEVNNPQVQRQAFNELIRVVHQLLPESSLRKRKRSRC | – | binds |
